Test results as given in US12662540B2, “Compositions and methods for inhibition of MICA/B shedding” (DANA-FARBER CANCER INSTITUTE, INC., priority 2017, dated 2026).
Entries after “also recorded” stand apart in the source; their conditions may differ.

Assays:
A375 cells = experiment: NK cell cytotoxicity assay (51Cr release), human NK cells against human tumor cells; format: cell-based; conditions: human NK cells; antibody added at time of killing assay (10 μg/ml, 66.7 nM)
Description: Human NK cells were isolated from fresh leukapheresis blood collars that had been generated by Brigham & Women's Hospital, Boston, from healthy donors. Samples were diluted with an equal volume of PBS and blood mononuclear cells were isolated by Ficoll density gradient centrifugation. Cells were washed with PBS, and NK cells were isolated by negative selection using the Human NK Cell Isolation Kit (130-092-657, Miltenyi Biotech) using an autoMACS system (Miltenyi Biotech). Enriched NK cells (purity of 50-90%) were then incubated with anti-CD56 (PE or APC conjugated) and anti-CD3 (FITC or Pacific Blue conjugated) (Biolegend) and sorted using a BD FACS Aria. Following sorting, NK cell purity was ˜99%. These cells were cultured for twelve hours in complete RPMI media supplemented with 300-1000 U/ml of recombinant human IL-2 (BD Pharmingen).
Target cells were labeled for 1 hour with 100 μCi of ^51[Cr] per 2×10^6 cells in 0.2 ml of media. Subsequently, cells were washed and plated in V-bottom 96-wells plates (5,000 target cells per well). To determine the experimental release, NK cells were added in an equal volume, but at different ratios. To determine maximum and spontaneous release, target cells were mixed with an equal volume of 2% Triton-X100 in PBS or an equal volume of media, respectively. Antibodies were added at a final concentration of 10 μg/ml.
For experiments shown in FIGS. 1E, 10, and 13E antibodies were added at the time of the killing assay. For FIGS. 3A-B, antibodies were added to tumor cells 48 hours prior to labelling with ^51[Cr] to inhibit MICAS shedding. The isotype control antibody for assays with human NK cells was recombinant human IgG1 Fc (BE0096, BioXcell). […] At the end of the incubation period, plates were centrifuged (2000 rpm, 5 minutes), part of the supernatant was collected, mixed with scintillation fluid, and radioactivity was quantified using a MicroBeta2 reader (Perkin Elmer). Specific killing was calculated using the following formula: 100×(Experimental release−Spontaneous release)/(Maximum release−Spontaneous release).

B16F10-MICA cells = experiment: B16F10 metastasis model in immunocompetent mice; format: in vivo, C57BL/6 mice
Description: The B16F10 cells were transduced with the luciferase-based lentiviral vector to express MICA. B16F10-MICA cells (5×10^5) were injected intravenously into C57BL/6 mice through the tail vein. Fewer tumor cells (4×10^5) were injected into NK cell-deficient mice given that the absence of NK cells results in a very large number of metastases. 7C6 or isotype control antibodies (MPC-11 or C1184, BioXcell, which have mIgG2b and mIgG2a isotypes, respectively) were administered intraperitoneally on days 1, 2, 7 and 10 at a dose of 200 μg per mouse. Antibody blockade and depletion were performed as described previously (24). For antibody-based depletion of CD8 T cells or NK cells, 100 μg per mouse of anti-CD8 (5358, BioXcell), anti-NK1.1 (PK136, BioXcell), and anti-asialo(as)GM1 (Wako Chemicals) were given on days −1, 0, and 7. For antibody blockade, anti-NKG2D (HMG2D, BioXcell) or control IgG (MOPC-21) were given at 200 μg per mouse on days −1, 0, 5, 7 and 10. Blood samples were collected at multiple time points by retro-orbital bleeding under isoflurane anesthesia. Mice were euthanized by CO2 inhalation, lungs were perfused with PBS and fixed in formalin solution, and the number of superficial metastases was counted under a stereomicroscope. Histology was performed by the Rodent Histopathology Core of the Dana-Farber/Harvard Cancer Center using lungs that had not been perfused with PBS.
Macrophages were depleted by intravenous injection of 0.2 ml clodronate liposomes (Encapsula NanoSciences LLC). In the humanized and B16F10-MICA metastasis models, 0.2 ml of clodronate liposomes or control liposomes were injected i.v. (on the same day of tumor cell inoculation and then once weekly).

[1] = test system: subcutaneous B16F10 tumors; experiment: Subcutaneous B16F10-MICA model; format: in vivo, mice (C57BL/6, Igh−/−)
Description: C57BL/6 mice were injected subcutaneously with 1×10^6 B16F10 cells that had been transduced with different lentiviral vectors (ZsGreen reporter). Five days later, treatment was initiated with 7C6-mIgG2a, 7C6-mIgG2b-DANA, or isotype control (C1184) antibodies (200 μg/mouse). Treatment was continued as indicated in the relevant figures. For antibody blockade, Igh^−/− mice were given 200 μg/mouse of anti-NKG2D (HMG2D) or control IgG (MOPC-21) on days −1, 0, 5, 9, 14, and 19. Mice were bled on day 9. Tumor size was monitored with a digital caliper and the tumor area was calculated by multiplying the two largest diameters. To minimize suffering, the end point was defined as a tumor size of 200 mm2.
C57BL/6 mice were injected subcutaneously with 1×10^6 B16F10 cells that had been transduced with different lentiviral vectors (ZsGreen reporter). Five days later, treatment was initiated with 7C6-mIgG2a, 7C6-mIgG2b-DANA, or isotype control (C1184) antibodies (200 μg/mouse). Treatment was continued as indicated in the relevant Figures. For antibody blockade, Igh^−/− mice were given 200 μg/mouse of anti-NKG2D (HMG2D) or control IgG (MOPC-21) on days −1, 0, 5, 9, 14, and 19. Mice were bled on day 9. Tumor size was monitored with a digital caliper and the area was calculated by multiplying the two largest diameters. To minimize suffering, the end point was defined as the time point when tumors reached a size of 200 mm^2.
Igh^−/− mice were injected subcutaneously with 1×10^6 B16F10-MICA cells that had been transduced with a ZsGreen-based lentiviral vector that drives MICA expression. On days 5, 7 and 9 after tumor cell inoculation, mice were treated with 200 μg 7C6-mIgG2a or isotype control antibodies. On days 7 and 14, sets of mice were euthanized and tumors were removed. Tumors were then mechanically dissociated to preserve MICA integrity on the cell surface. Next, Fc receptors were blocked using Mouse True Stain FcX (Biolegend). Cells were subsequently stained with a PE-conjugated anti-mouse IgG antibody (Poly4053, Biolegend). Cells were then washed and stained with APC-conjugated anti-MICAS antibody (6D4), PE-Cγ7-CD45.2 and Zombie NIR (all from Biolegend). Viable tumor cells were identified by flow cytometry based on size, ZsGreen fluorescence and absence of CD45.2 expression. Samples were examined using a Sony Spectral Analyzer or Beckman Coulter CytoFLEX, and data were analyzed by FlowJo.

B1: 7C6: monoclonal antibody from mice immunized with recombinant MICA α3 domain; parental mIgG2b; VH SEQ ID NO: 7, VL SEQ ID NO: 8 (antibody)
VH: QIQLVQSGPELKKPGETVKVSCKASGYMFTNYAMNWVKQAPEKGLKWMGWINTHTGDPTYADDFKGRIAFSLETSASTAYLQINNLKNEDTATYFCVRTYGNYAMDYWGQGTSVTVSSAKTTAPSVYPLAPVCGDTTGSSVTLGCLVKGYFPEPVTLTWNSGSLSSGVHTFPAVLQSDLYTLSSSVTVTSS
VL: DIQMTQTTSSLSASLGDRVTISCSASQDISNYLNWYQQKPDGTVKLLIYDTSILHLGVPSRFSGSGSGTDYSLTISNLEPEDIATYYCQQYSKFPRTFGGGTTLEIK
modifications: mAb 7C6 heavy chain amino acid sequence; mAb 7C6 light chain amino acid sequence
With B1 the “NK cell mediated cytotoxicity against human tumor cells” value (A375 cells) was “increases NK cell cytotoxicity”, the “shed MICA in serum” value (B16F10-MICA cells; B16F10-MICA i.v. in C57BL/6 mice) was “undetectable; also recorded: reduced shed MICA in the sera” and the “therapeutic activity against lung metastases after NK cell or CD8 T cell depletion” value (B16F10-MICA cells; anti-asGM1, anti-NK1.1 or anti-CD8β) was “NK cells, but not CD8 T cells, were essential for the therapeutic activity”. For the same molecule, the “therapeutic activity in Prf1−/− and Ifng−/− mice” value (B16F10-MICA cells; lung metastases day 14) was “therapeutic efficacy was lost in perforin (Prf1) but not IFNγ (Ifng) deficient mice; also recorded: Perforin but not interferon-γ expression is required for therapeutic activity”, the “subcutaneous tumor growth inhibition, Igh−/− versus wild-type mice” value ([1]; B16F10-MICA, 200 μg) was “inhibited growth of subcutaneous B16F10-MICA melanomas more effectively in B cell deficient mice” and the “therapeutic activity against subcutaneous tumors that secrete MICA or lack NKG2D ligands” value ([1]; Igh−/− mice) was “no therapeutic effect was observed”. For the same molecule, the “therapeutic activity against subcutaneous tumors expressing full-length MICA or MICB” value ([1]; Igh−/− mice, treatment from day 5) was “restricted to subcutaneous tumors that expressed full-length MICA or MICB”, the “receptor requirement for inhibition of subcutaneous tumor growth” value ([1]; NKG2D blockade, DANA mutant) was “NKG2D and CD16 Fc receptors were also both required for inhibition of subcutaneous tumor growth” and the “clearance of secreted MICA protein (serum, day 9)” value ([1]; tumors secreting MICA) was “did not promote clearance of secreted MICA protein”. For the same molecule, the “MICA and MICB shedding (serum, day 9)” value ([1]; tumors with full-length MICA or MICB) was “inhibited MICA and MICB shedding”.
